Consider 5 molecules from US20150259419A1 (PROTHENA BIOSCIENCES, published 2015).

The labels stand for the following.
B5: human MCAM, full length, expressed on transfected cells (receptor)
chain: VPGEAEQPAPELVEVEVGSTALLKCGLSQSQGNLSHVDWFSVHKEKRTLIFRVRQGQGQSEPGEYEQRLSLQDRGATLALTQVTPQDERIFLCQGKRPRSQEYRIQLRVYKAPEEPNIQVNPLGIPVNSKEPEEVATCVGRNGYPIPQVIWYKNGRPLKEEKNRVHIQSSQTVESSGLYTLQSILKAQLVKEDKDAQFYCELNYRLPSGNHMKESREVTVPVFYPTEKVWLEVEPVGMLKEGDRVEIRCLADGNPPPHFSISKQNPSTREAEEETTNDNGVLVLEPARKEHSGRYECQAWNLDTMISLLSEPQELLVNYVSDVRVSPAAPERQEGSSLTLTCEAESSQDLEFQWLREETDQVLERGPVLQLHDLKREAGGGYRCVASVPSIPGLNRTQLVKLAIFGPPWMAFKERKVWVKENMVLNLSCEASGHPRPTISWNVNGTASEQDQDPQRVLSTLNVLVTPELLETGVECTASNDLGKNTSILFLELVNLTTLTPDSNTTTGLSTSTASPHTRANSTSTERKLPEPESRGVVIVAVIVCILVLAVLGAVLYFLYKKGKLPCRRSGKQEITLPPSRKTELVVEVKSDKLPEEMGLLQGSSGDKRAPGDQGEKYIDLRH
notes: CHO cells transfected with the full length human MCAM gene; also called hMCAM; CD146

The target of experiment [1] is T1, full length MCAMhFc protein (extracellular domain of human MCAM fused to human IgG) (human, UniProt P43121 24-559).
T1 construct: also called hMCAM-Fc; Human MCAM-Fc protein; not shown: human IgG (Fc) portion
T1 chain: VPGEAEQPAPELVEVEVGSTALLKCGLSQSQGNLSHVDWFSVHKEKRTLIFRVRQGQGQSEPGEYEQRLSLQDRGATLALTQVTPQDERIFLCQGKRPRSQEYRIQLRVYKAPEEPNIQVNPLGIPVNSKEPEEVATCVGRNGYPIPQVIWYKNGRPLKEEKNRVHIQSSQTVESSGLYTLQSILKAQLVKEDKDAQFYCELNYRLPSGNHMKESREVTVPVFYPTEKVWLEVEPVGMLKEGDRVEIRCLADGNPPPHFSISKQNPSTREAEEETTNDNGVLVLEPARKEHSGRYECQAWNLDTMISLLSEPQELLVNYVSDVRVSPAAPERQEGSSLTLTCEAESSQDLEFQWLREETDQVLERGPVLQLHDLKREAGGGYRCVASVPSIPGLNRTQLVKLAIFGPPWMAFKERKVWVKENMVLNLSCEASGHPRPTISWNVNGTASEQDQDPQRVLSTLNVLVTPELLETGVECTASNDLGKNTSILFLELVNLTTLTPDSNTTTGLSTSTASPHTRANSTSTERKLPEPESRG
The experiment can be described thus: summary of Examples 2 and 3.

In experiment [2] the target is T2, human MCAM domain 1 (MCAMhFc domain construct) (human, UniProt P43121 19-129).
T2 construct: also called amino acids 19-129; not shown: human Fc portion (captured on anti-human IgG Fc biosensors)
T2 sequence: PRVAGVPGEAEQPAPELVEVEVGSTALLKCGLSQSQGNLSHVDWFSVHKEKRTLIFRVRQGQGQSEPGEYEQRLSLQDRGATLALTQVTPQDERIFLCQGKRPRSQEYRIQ
The experiment can be described thus: ForteBio Octet Red, MCAMhFc domains on anti-human IgG Fc biosensors. An excerpt:
(§1) The following protocol was used: ForteBio anti-human IgG Fc biosensors were used to immobilize various MCAMhFc domains including full length MCAMhFc protein on to biosensor surface. […] After loading these samples into a black 96 well plate, the Octet Red was programmed as follows: 60 seconds for baseline #1; 180 seconds for loading various domains; 60 seconds for baseline #2; 180 seconds for association of antibody to domain; and 240 seconds for dissociation of antibody from domain.
(§2) 1. MCAMhFc final concentration@5 ug/ml [0374] […] 3. ForteBio anti-human IgG Fc Capture (AHC) biosensors for kinetics experiments, cat #18-5060 [0376] 4. Block 96 well plate from Greiner Bio-one, cat #655209 [0377] 5. ForteBio Octet Red machine [0378] 6. Fresh tissue culture medium, DMEM with 20% FCS, was used as buffer for dilution
(In BLI a coated tip is dipped into the sample, and binding shifts an interference pattern.)

In experiment [3] the target is T3, human MCAM domain 2 (MCAMhFc domain construct) (human, UniProt P43121 139-242).
T3 construct: not shown: human Fc portion
T3 sequence: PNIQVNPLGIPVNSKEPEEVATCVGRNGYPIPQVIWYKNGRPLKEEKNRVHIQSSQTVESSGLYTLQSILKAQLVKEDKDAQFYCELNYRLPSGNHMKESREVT
The description is as above.
Description: as §1, §2

The target of experiment [4] is T4, combination of human MCAM domains 1 and 2 (MCAMhFc domain construct) (human, UniProt P43121 19-242).
T4 construct: not shown: human Fc portion
T4 sequence: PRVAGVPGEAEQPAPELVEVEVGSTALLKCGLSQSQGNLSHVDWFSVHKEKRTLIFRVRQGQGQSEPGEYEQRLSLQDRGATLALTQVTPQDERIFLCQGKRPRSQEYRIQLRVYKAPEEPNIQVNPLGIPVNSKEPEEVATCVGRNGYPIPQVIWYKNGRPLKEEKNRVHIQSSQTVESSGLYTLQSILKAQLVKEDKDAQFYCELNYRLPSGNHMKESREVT
Described as above.
Description: as §1, §2

Experiment [5] deals with T5, human MCAM domain 3 (MCAMhFc domain construct) (human, UniProt P43121 244-321).
T5 construct: also called amino acids 244-321; not shown: human Fc portion
T5 sequence: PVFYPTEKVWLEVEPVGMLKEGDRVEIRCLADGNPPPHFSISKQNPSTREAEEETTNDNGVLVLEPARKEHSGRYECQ
The experiment is described as follows: ForteBio Octet Red, MCAMhFc domains on anti-human IgG Fc biosensors, antibody at 5 ug/ml.
Description: as §1, §2

Experiment [6] has as its target B5. The experiment is described as follows: blocking of laminin 411 (20 ug/ml) binding to CHO cells expressing human MCAM, flow cytometry. As to the method:
The 87 independent mouse fusion clones and 26 independent rat fusion clones described in Example 1 above as being capable of (i) binding to human MCAM, and (ii) blocking the interaction between human MCAM and the α-4 chain of laminin were further characterized as follows. First, IC50 quantitation for the ability of the monoclonal antibody to block the binding of human MCAM to the α-4 chain of laminin was determined as follows. CHO cells expressing human MCAM were incubated with an anti-human MCAM antibody (at various concentrations) for 30 minutes at 4 degrees Celsius. […] Unbound laminin was then washed away, and the laminin bound to the surface of the cells was detected with fluorescently labeled anti-laminin antibodies. After washing, the amount of laminin bound to the surface was detected by flow cytometry, and IC50s were calculated based on the mean fluorescent intensity.
Amino acid and nucleic acid sequences of the heavy and light chains of these antibodies, and their hypervariable regions, are provided in SEQ ID NOs:29-92. […] As such, each of these specific monoclonal antibodies was very capable of binding to human MCAM and inhibiting the interaction of cell-expressed human MCAM with its α-4 laminin binding ligand.

The target in experiment [7] is T6, recombinant laminin 511 (UniProt O15230 36-3695; P07942 22-1786; P11047 34-1609).
T6 construct: also called laminin 10 (α5β1γ1)
The experiment is described as follows: CHO cells transfected with human MCAM incubated with laminin, pan-laminin antibody, flow cytometry. In general terms: In flow cytometry, cells or beads pass a laser one at a time.

B1: mouse anti-human MCAM monoclonal antibody clone 1415.1.1 (antibody, V domains shown)
VH: QVQLQQPGAELVQPGAPVKLSCKASGYIFTSYWMNWVKQRPGRGLEWIGRIDPSDSKIHYNQKFKDKATLTVDRSSSTAYIQLGSLTSEDSAVYYCAKEGGLRRGDYAMDYWGQGTSVTVSS
VL: DIVMTQSPATLSVTPGDRVSLSCRASQSISDYLHWYQQKSHESPRLLIKYASQSISGIPSRFSGSGSGSDFTLSINSVEPEDVGVYYCQNGHNFPRTFGGGTKLEIK
notes: Mouse hybridoma antibody
One may read the IC50 as the concentration that gives 50% inhibition. A high value points to weaker potency. Consider B1, for which the binding result is given as “binds” in experiment [1]; “no binding (tested: 5 ug/ml)” in experiment [2]; “no binding (tested: 5 ug/ml)” in experiment [3]; “no binding (tested: 5 ug/ml)” in experiment [4]; “binds” in experiment [5]. For the same molecule, the IC50 in experiment [6] was determined as 0.307 µg/mL.

B2: mouse anti-human MCAM monoclonal antibody clone 1174.1.3 (antibody, V domains shown)
VH: QIQLVQSGPELKKPGETVKISCKASGYTFTNYGMNWVKQAPGKGLKWMGWINTYTGEPTYADDFKGRFALSLETSASTAYLQINNLKNEDMATYFCARYRYNKYERAMDYWGQGTSVTVSS
VL: DIVLTQSPASLAVSLGQRATISCRASKSVSTSGYSYMYWYQQKPGQPPKLLIYLASNLESGVPARFSGSGSGTDFTLNIHPVEEEDAATYYCQHSRELPFTFGSGTKLEIK
notes: Mouse hybridoma antibody
Regarding B2, the binding result in experiment [1] is reported as “binds”; in experiment [2] it was “no binding (tested: 5 ug/ml)”; in experiment [3] it was “no binding (tested: 5 ug/ml)”; in experiment [4], “no binding (tested: 5 ug/ml)”; in experiment [5] it was “binds”. This molecule yielded an IC50 in experiment [6] of 0.469 µg/mL.

B3: mouse anti-human MCAM monoclonal antibody clone 1414.1.2 (antibody, V domains shown)
VH: EIQLQQTGPELVKPGASVKISCKASGYSFTDYIMLWVKQSHGKSLEWIGNINPYSGSSGYNLKFKGKATLTVDKSSSTAYMQLNSLTSEDSAVYYCARGKDFAMDYWGQGTSVTVSS
VL: DIVMSQSPSSLAVSAGEKVTMSCKSSQSLLNSSTRKNFLAWYQQKPGQSPKLLIYWASTRESGVPDRFTGSGSGTDFTLTISSVQAEDLAVYYCKQSYNRYTFGGGTKLEIK
notes: Mouse hybridoma antibody
On to B3, for which the binding result in experiment [1] is “binds”; in experiment [2], “no binding (tested: 5 ug/ml)”; in experiment [3], “no binding (tested: 5 ug/ml)”; in experiment [4], “no binding (tested: 5 ug/ml)”; in experiment [5], “binds”. The same molecule returned an IC50 in experiment [6] of 0.431 µg/mL.

B4: mouse anti-human MCAM monoclonal antibody clone 1749.1.3 (antibody, V domains shown)
VH: DVKLVESGGDLVKPGGSLKLSCAASGFTFSSYIMSWVRQTPEKRLEWVATISSGGSSTYYPDSVKGRFTISRDNAKNTLYLQMSSLKSEDTAMYYCTRDDDYDVKVFAYWGQGTLVTVSA
VL: DIVMSQSPSSLAVSAGEKVTMNCKSSRSLLNSRIRKNYLAWYQQKPGQSPKLLIYWASTRESGVPDRFTGSGSGTDFTLTISSVQAEDLAVYYCKQSYNLLTFGAGTKLELK
notes: Mouse hybridoma antibody
Regarding B4, the binding result in experiment [1] is given as “binds”; in experiment [2], “no binding (tested: 5 ug/ml)”; in experiment [3], “no binding (tested: 5 ug/ml)”; in experiment [4] it was “no binding (tested: 5 ug/ml)”; in experiment [5], “binds”. This molecule yielded an IC50 in experiment [6] of 0.545 µg/mL.
As to B5, the binding result in experiment [7] was “no binding (tested: 10 µg/ml)”.
